From a protein production outcome set (Wang et al. 2014)

Test: label from the status in PepcDB records

## MSFSDHFSAVAASYAKARPRYPQRWFRYLARIVPDRQRVWDCATGNGQAAIALAEYFSEVIGSDASAAQVRQARSHPRVQYLVFPAEATPLAPASLDLITVAQAAHWFDLPQFYIEAQRLLRPGGVIALWGYGLGSLNPAIDHVFNHFYRDWLDPYWPPERQWVEQAYEGLSFPFEPLPTPTFSMQCDWTLFDLLAYLRTWSGVQQFQRQRGFDPVWAIAPELQRVWGDPQRYRRITWPLFAKVGRWQPDRVRLEHHHHHH
  protein production: failed

## MKFDESKTLLPVRKPVNGNRKTAGYKLWVLIAVLLLAFGSMLTGSVSLKGIGLFHSADGVNAFSFGDDLDVLEIEEREKVVRQMWDVYGRSGGVKVPRFWREAFEAAYEFLISDSAAVRNAAVSDIAKLSLVRFVKSESTSAQPNLH
  protein production: failed

## MQPPSHAPRQLAAADLAVGQVVAQREIRLDAQAFAQFAALTGDAHPIHYDAGYAQRQGLRAPIAHGLLLVAISALGATPLSAQLHDAMVAMVGVEAVFMRPVYVDETVQCVYRVAQIEHVAKGRSKTTIAVSIHTTDAPPDAARQAHCVVHLTFLLKTHLQG
  protein production: failed

## MKPSHQQQKQASAAKDEKKDIIPLSAEKADGAEGWLNNSTILYTASNPTKTELFPYRIFTGKAKKLYQTDGQIVDVQINAREQMILLQITHSQKTAVVLLNAEGETLYEKDYETYELEAAWNQYDPYQMMVTEFNENWDFHTYQVNAKKDESFLSPVQVPFIHWTSKNTFDYVKEGRDDKTGPLYTFDTASKTEQKLEDNVLFFDSFHQMSFTVKSASGGKGTYQFKTPQSTSPVTAKWPLQAKYTSLAPMEYDYDEAGSLFYTFKQSGDAYKLAAINVASGETKDLVSLREMEPIQISPNGKYALYGFHFEQIILLKSHETKQLIIDQKEMELEHHHHHH
  protein production: failed

## HSFVVLVIGESARKHNYALYGYQKPTTPRLSKRLADNELTLFNATSCATYTTASLECILDSSFKNNAYENLPTYLTKAGIKVFWYSANDGEKNVKVTSYLKNYELIQKCPNCEAIAPYDESLLYNLPDLLKEHSNENVLLILHLAGSHGPNYDNKVPLNFRVFKPYCSSADLSSCSKESLINAYDNTIFYNDYLLDKIISMLENAKQPALMIYLSDHGESLGEEAFYLHGIPKSIAPKEQYEIPFIVYAN
  protein production: failed

## MITFRKRVEIEADPAEVFRVISDPWRITEFWKGTRQVIEDGDFYRIRFAFPAWGLMSFHPDAERMTVLTSYLKGPVRGSKVDAVLVSSGKTVLQTEWNVRLSFYLRPFERRIASHFESGADHAINRIKESVEKDKK
  protein production: failed

## MKHLVTTALAYTNGPLHLGHARSTYIPADIYTRYLRLKGEEVIHVGGTDNHGVPITLTAEREGVKPIDIVDRYHNAIKADLDSLNVSFDTFGRTHSDIHIETAQEFYSKLKENGYIYEKEIEQFYCEKCDMYLADRYVEGICPFCEGEARGDHCEVCGRHLEPTELVNPYCIHCNSKPEIKRTTHYFFKLSAMQDVLKEYIENSPEMPEHVKNMALRWIEELHDWDVSRNIKWGVPIPGCDDQVMYVWIEAPIGYVSFTKQLGDLWKDYWLENTGDSKISHFIGKDITVHHAVFWPGILKGIGGYKMPNAVVSGGYLTLENKKMSTSKNWVVWVKDFIENFSSDYLRYFFMINAPLNRDTDFSWDDFQKRINTELIDIIGNFTHRTLVFTERKFGSTPVVDLNQLKDEDKKLISKCEDTLNRVDSLIREYNFKDALMEIIHLAKEGNGYFQGMAPWAIKDEERLKEVMYTCSVALKYIVYLLSSFMPEKTALLLEYMNEELDLEVRGNPLKKPKVIFTKVSDEDISRMKENLMKATKKAETKSDEKSKKVKSGEKMDIIDIDYFGNIDLRVGQILEVEEVPRSKKLYKITADLGDEKRQIVSGLKGAYEAEELVGKKVIIICNLKPAKLCGVESQGMLLAAEDDSIVSLLALDRDLPVGSKIH
  protein production: failed

## MPGFTAPTRRQVLSLYKEFIKNANQFNNYNFREYFLSKTRTTFRKNMNQQDPKVLMNLFKEAKNDLGVLKRQSVISQMYTFDRLVVEPLQGRKH
  protein production: failed

## MKKVILLGATSNISKYLIPRLLAKNDVELTLFARQATRRLHQYAAQSQVTLTNGNWNNSADLTAAIAGQDIVYLATGHFTTANQNVVDAMKQNGVERLIVAGGLGIYDEVAGKFGIWNAQMMGDYTEIKRAAAVIDNSGLNYTFLRMAWLYNNDQHTDYKVIPQGMPFKDTQVTRQAVADLITEIIHNPQLYQRSSIGVAEPNTAWNKPGFY
  protein production: failed
